Three substances from article PMC5622069 can be followed below.

The target of experiment [1] is MnxG (Bacillus sp. PL-12). The experiment can be described thus: native MS; surface-induced dissociation (SID) of the isolated 29+ Mnx complex at a low collision voltage of 40 V, ion mobility-MS; hexamer assigned after removal of most bound copper with EDTA.
In experiment [2] the target is MnxF (Bacillus sp. PL-12). The experiment is described as above.

MnxE3F3 hexamer (complex) yielded a stoichiometry N (MnxG per hexamer) in experiment [1] of 1.

Substance MnxE (natural protein) displayed a stoichiometry N (MnxE per MnxF (3:3)) in experiment [2] of 1. The substance also returned a stoichiometry N (MnxE per MnxG) in experiment [1] of 3.

The substance MnxF (natural protein) displayed a stoichiometry N (MnxF per MnxG) in experiment [1] of 3.
